From patent publication US12319941B2, “Thermophilic recombinant type II pullulanase and application thereof” (Jiangnan University, priority 2019, dated 2025)
“Also recorded” adds a separate entry of the source. Like-named read-outs stand apart in the source and are kept apart here.

Experiments:
[1] = test system: recombinant type II pullulanase Sumo-PulPy; assay: Effect of metal ions and chemical reagents on the enzyme activity of Sumo-PulPy; assay type: biochemical, Pyrococcus yayanosii CH1; conditions: for Relative enzyme activity (%): pH 6.6; for effect on the enzyme activity of Sumo-PulPy (in words): reagent added to enzymatic reaction system
[2] = DNS method enzyme activity and kinetic parameters (Lineweaver-Burk) with pullulan as substrate; assay type: biochemical; conditions: for Km / Vmax: pullulan 1.25-40 mg/mL, optimum conditions
Protocol: (§1) The determination of the activity of recombinant type II pullulanase Sumo-PulPy was adopted the 3,5-dinitrosalicylic acid (DNS) method. The specific steps were as follows: reacting 100 μL reaction system (10 μL potassium phosphate buffer with different pH with a final concentration of 100 mM, 50 μL pullulan with a final concentration of 3% and 40 μL enzyme solution) at a certain temperature for 15 min, adding 100 μL DNS reaction solution, boiling in a water bath for 6 min, immediately cooling to room temperature with running water, adding and diluting with distilled water, mixing well, and determining […]. One enzyme activity unit (U) was defined as the amount of enzyme required to release reducing sugar correspond to the reduction capacity of 1 μmol glucose per minute under assay conditions.
Using different concentrations of pullulan (1.25, 2.5, 5, 10, 20, and 40 mg/mL) as the substrate, the enzyme activity was determined under the optimum conditions, the corresponding reaction rate was calculated, and Km value and Vmax were obtained by Linewear Burk method using Michaelis-Menten Equation.

[3] = assay type: biochemical; conditions: for optimum temperature: potassium phosphate buffer, 75-100° C.
Protocol: as §1
Determination of the optimum temperature of the enzyme: the enzymatic reaction was performed in a potassium phosphate buffer (pH 6.6) at 75-100° C.
Determination of the thermal stability of the enzyme: the enzyme solution with the same amount of enzyme was placed under the conditions of 80° C., 90° C., 95° C. and 100° C., respectively, and disposed for 2 h, 4 h, 6 h, 8 h and 10 h, respectively, and the enzymatic reaction was performed at pH 6.6 and 95° C. to determine the remaining enzyme activity of Sumo-PulPy.

[4] = Optimum pH and pH stability of the enzyme; assay type: biochemical; conditions: for optimum pH: 100 mM potassium phosphate buffer pH 5.8-8.0; for pH stability / pH tolerance: between pH 5.8 and 8.0
Protocol: as §1
Determination of the optimum pH: the purified Sumo-PulPy was subjected to enzymatic reaction in 100 mM potassium phosphate buffer (pH 5.8-8.0) at 95° C.
Determination of the pH stability of the enzyme: the enzyme solution was added into 100 mM potassium phosphate buffer (pH 5.8-8.0) and disposed at 4° C. for 4 h, and then the enzymatic reaction was performed at pH 6.6 and 95° C. to determine the remaining enzyme activity of Sumo-PulPy. […] Except for a 12% loss of enzyme activity after disposal at pH 5.8 for 4 h, the rest has almost no effect on the enzyme activity (FIG. 4).

[5] = Analysis of degradation products of Amylose from potato (MALDI-TOF/TOF); assay type: biochemical; conditions: 1% Amylose from potato, 95° C., 6 h
Protocol: (§2) The sample processing procedure was as follows: an appropriate amount of pure enzyme solution was mixed well with 1% pullulan and 1% Amylose from potato respectively, enzymatically hydrolyzed at 95° C. for 6 h, cooled to room temperature and then centrifuged at 12000 r/min for 20 min. And the supernatant was taken. The enzymatic hydrolysis products of pullulan and Amylose from potato were analyzed using high performance liquid chromatography (HPLC, conditions: Hpersil NH2 amino column (4.6×250 mm), column temperature 40° C., mobile phase (acetonitrile:water=67:33), flow rate 1.0 mL/min, injection volume 20 μL) and MALDI-TOF/TOF matrix-assisted laser […]/ionization tandem time-of-flight mass spectrometer respectively.

[6] = Analysis of degradation products of pullulan (HPLC); assay type: biochemical; conditions: 1% pullulan, 95° C., 6 h
Protocol: as §2

[7] = reagent 1%, 100% = no reagent, 95° C.
[8] = reagent 2 mM, 100% = no reagent, 95° C.

O[C@@H](CS)[C@@H](O)CS [DTT]
Relative enzyme activity (%) [1, 7]: 337.2 ± 4.7%

OCCS [β-mercaptoethanol]
Relative enzyme activity (%) [1, 7]: 157.4 ± 3.0%

[Cl-].[Cl-].[Mg+2] [MgCl2]
Relative enzyme activity (%) [1, 8]: 94.9 ± 3.4%

[Cl-].[Na+] [NaCl]
Relative enzyme activity (%) [1]: 81.1 ± 4.2%

Triton X-100
Relative enzyme activity (%) [1, 7]: 111.1 ± 3.6% | effect on the enzyme activity of Sumo-PulPy (in words) [1]: weakly promote

[Ca+2].[Cl-].[Cl-] [CaCl2]
Relative enzyme activity (%) [1, 8]: 71.3 ± 3.5%

[Cl-].[Cl-].[Co+2] [CoCl2]
Relative enzyme activity (%) [1]: 150.0 ± 4.8%

O=S(=O)([O-])[O-].[Fe+2] [FeSO4]
Relative enzyme activity (%) [1, 8]: 183.1 ± 4.0%

[Cl-].[K+] [KCl]
Relative enzyme activity (%) [1, 8]: 104.1 ± 3.0% | effect on the enzyme activity of Sumo-PulPy (in words) [1]: weakly promote

O=S(=O)([O-])[O-].[Zn+2] [ZnSO4]
Relative enzyme activity (%) [1, 8]: 0%

[Cl][Mn][Cl] [MnCl2]
Relative enzyme activity (%) [1, 8]: 91.2 ± 2.9%

[Cl][Cu][Cl] [CuCl2]
Relative enzyme activity (%) [1, 8]: 45.9 ± 3.5%

CCCCCCCC/C=C\CCCCCCCC(=O)OCCOCC(OCCO)C1OCC(OCCO)C1OCCO (centres unmarked) [Tween-80]
Relative enzyme activity (%) [1, 7]: 110.8 ± 2.9% | effect on the enzyme activity of Sumo-PulPy (in words) [1]: weakly promote

O=S(=O)([O-])[O-].[Ni+2] [NiSO4]
Relative enzyme activity (%) [1, 8]: 73.3 ± 3.3%

B1: Δ28N+Δ791C: combined truncation mutant of PulPy: first 28 N-terminal amino acids and amino acids after position 790 deleted (SEQ ID NO:3) (protein)
chain: MGHHHHHHMSDSEVNQEAKPEVKPEVKPETHINLKVSDGSSEIFFKIKKTTPLRRLMEAFAKRQGKEMDSLRFLYDGIRIQADQTPEDLDMEDNDIIEAHREQIGGQRGSPKPLNVIIVWHQHQPYYYDPVQGIYTRPWVRLHAANNYWKMAYYLSKYPDVHATIDLSGSLIAQLADYMNGAKDIYQIITEKIAKGEPLTVEEKWLMLQAPGGFFDHTIPWNGEPVTDKNGNPIRDFWNRYTELKNKMLQAKAKYANLPLEEQKVAVTNEFTEQDYIDLAVLFNLAWIDYNYIMNTPELKALYEKVDEGGYTREDVRTVLKHQMWLLNHTFEEHEKINLLLGNGNVEVTVVPYAHPIGPILNDFGWEEDFDAHVKKAHELYKKYLGAGKVTPKGGWAAESALNDKTLEILAENGWQWVMTDQLVLQKLGIPYTVENYYKPWVAEFNGRKIYLFPRDHALSDRVGFTYSGMNQYQAVEDFINELLRIQKQNYDGSLVYVITLDGENPWEHYPYDGKLFLETLYKRLTELQRQGLIRTLTPSEYIKLYGDKANKLTPQMMERLDLTGDNVEALLKAQSLGELYDMIGVKEEMQWPESSWIDGTLSTWIGEPQENYGWYWLYLARKALMAQKDKMSQENWEKAYEYLLRAEASDWFWWYGSDQSSGQDYTFDRYFKTYLYEIYRLAGLEPPSYLYGNYFPDGEPYTIRALEGLGEGQVKEYSSMSPLAEGVSVYFDGEGVHFVVKGNLEKFEISIYEKGERVGNTFTLLQERPGELKYSLFPFSRDSVGLLITKHVVYRDGKAEIYAATDYENTEKVGEASVKQVDGGVEIVVPFDYIKTPEDFYFAVSTVKDGELEIITTPIELKLPMEVKGVP
modifications: Protein translated from synthetic DNA
specific enzyme activity [2]: 32.18±0.92 U/mg | specific enzyme activity relative to Sumo-PulPy [2]: 5.99 times | Km [2]: 6.63 ± 0.56 mg/mL | Vmax [2]: 32.18±0.92 U/mg | improvement of optimum temperature compared with Sumo-PulPy [3]: 5 °C | thermal stability at 100° C. compared with Sumo-PulPy [3]: slightly improves | remaining enzyme activity after heat preservation at 100° C. for 2 h ([3]; 2 h): greater than 60% | optimum temperature [3]: 100 °C | optimum pH [4]: 6.4 | pH stability / pH tolerance [4]: good pH tolerance

B2: Sumo-PulPy: thermophilic recombinant type II pullulanase from Pyrococcus yayanosii CH1 (SEQ ID NO:1) with His and Sumo tags, expressed in E. coli (protein)
chain: MGHHHHHHMSDSEVNQEAKPEVKPEVKPETHINLKVSDGSSEIFFKIKKTTPLRRLMEAFAKRQGKEMDSLRFLYDGIRIQADQTPEDLDMEDNDIIEAHREQIGGQRGSRRVLSLFVVFVVLGSLLALQPEVKAGEPKPLNVIIVWHQHQPYYYDPVQGIYTRPWVRLHAANNYWKMAYYLSKYPDVHATIDLSGSLIAQLADYMNGAKDIYQIITEKIAKGEPLTVEEKWLMLQAPGGFFDHTIPWNGEPVTDKNGNPIRDFWNRYTELKNKMLQAKAKYANLPLEEQKVAVTNEFTEQDYIDLAVLFNLAWIDYNYIMNTPELKALYEKVDEGGYTREDVRTVLKHQMWLLNHTFEEHEKINLLLGNGNVEVTVVPYAHPIGPILNDFGWEEDFDAHVKKAHELYKKYLGAGKVTPKGGWAAESALNDKTLEILAENGWQWVMTDQLVLQKLGIPYTVENYYKPWVAEFNGRKIYLFPRDHALSDRVGFTYSGMNQYQAVEDFINELLRIQKQNYDGSLVYVITLDGENPWEHYPYDGKLFLETLYKRLTELQRQGLIRTLTPSEYIKLYGDKANKLTPQMMERLDLTGDNVEALLKAQSLGELYDMIGVKEEMQWPESSWIDGTLSTWIGEPQENYGWYWLYLARKALMAQKDKMSQENWEKAYEYLLRAEASDWFWWYGSDQSSGQDYTFDRYFKTYLYEIYRLAGLEPPSYLYGNYFPDGEPYTIRALEGLGEGQVKEYSSMSPLAEGVSVYFDGEGVHFVVKGNLEKFEISIYEKGERVGNTFTLLQERPGELKYSLFPFSRDSVGLLITKHVVYRDGKAEIYAATDYENTEKVGEASVKQVDGGVEIVVPFDYIKTPEDFYFAVSTVKDGELEIITTPIELKLPMEVKGVPIVDVVDPEGDDYGPGTYTYPTDPVFVPHHLDLLRFRILEQTDAYVMEFYFKELGGNVWNAPNGFSLQIIEVYLDFREGGNTSAIKMFPDGPGANVNLDPEHPWDLALRIAGWDYGNLIVLPNGTVYQGELQISADPVNNKIIVKVPKKYIQIDEDYGLWGVVLVGSQDGYGPDKWRPVAVEAEQWRLGGADQQAVIDNLAPRVVDLLVPEGFKPTQEEQLSSYDLEKKILATVLMIPLIEGSGGEEPAETPRETAIPAESPTTTEAPTETQSTTTSQGPTETQTGGGICGPVALLGLVMTPLLLRRRR
modifications: His and Sumo tags; Protein translated from synthetic DNA
specific enzyme activity [2]: 5.37±0.20 U/mg | specific enzyme activity ([2]; 95° C. and pH 6.6, no metal ions or chemical reagents added): 5.37±0.20 U/mg | Km [2]: 8.78 ± 0.89 mg/mL | Vmax [2]: 5.37±0.20 U/mg | hydrolysate of Amylose from potato [5]: mainly oligosaccharides such as pentasaccharides, hexasaccharides, heptasaccharides, and octasaccharides | remaining enzyme activity after heat preservation at 95° C. for 10 h ([3]; 10 h): greater than 50% | optimum temperature [3]: 95 °C | pullulan hydrolysates [6]: most of the pullulan hydrolysates are maltotriose | optimum pH [4]: 6.6 | loss of enzyme activity after disposal at pH 5.8 for 4 h ([4]; 4° C., 4 h, pH 5.8, then assay at pH 6.6 and 95° C.): 12% | pH stability / pH tolerance [4]: better pH tolerance; also recorded: very stable
